Where no end group is shown, it is not given here.
Experiments:
[1] = tested on: human primary PBMC's; assay: Stimulation of PBMCs of healthy volunteers with TLR ligands, cytokine release; type: cell-based; conditions: hBD2 100, 40, 10 or 1 μg/ml, 24 h, cytometric bead array
Protocol: Heparinized blood was diluted 1/1 v/v with RPMI (Gibco) and was subjected to Ficoll-Paque Plus (GE healthcare) density centrifugation within 2 h of drawing. Plasma was collected from the top from individual donors and was kept on ice until it was used at 2% in the culture medium (autologous culture medium). Isolated PBMC's were re-suspended in autologous culture medium and seeded in 96-well culture plates with 115.500 cells per well (Figure 1) or 200.000 cells per well (Figure 2) in a total of 200 μl. […] The supernatants were collected after incubation at 37°C for 24 h, and stored at −80°C until cytokine measurement.
The experiment in Figure 1 was performed with healthy volunteers, which were recruited under an approval from the Ethical Committee for Region Capital, Denmark. Interleukin 1β (IL-1β) and tumor necrosis factor alpha (TNF-α) (Figure 1) were quantified in supernatants by flow cytometry using a human inflammation cytometric bead array (CBA) according to manufacturer's instructions (BD) using a FACSarray flow cytometer. IL-1β, TNF- α, Interferon gamma (INF-y), Interleukin 12p70 (IL-12), and Interleukin 23 (IL-23) were analyzed using a human inflammation cytometric bead array (LegendPlex Biolegends) according to manufacturer's instructions.

[2] = tested on: murine BM-DC's; assay: Cytokine production by murine BM-DC's; type: cell-based, mouse; conditions: n = 3
Protocol: BM-DC's were generated using granulocyte-macrophage colony-stimulating factor (GM-CSF) and RPMI-1640 medium (Merck) supplemented with 10% fetal calf serum (FBS; Life Technologies), 2 mM glutamine (Thermo Fisher), 100 U/ml penicillin/streptomycin (Gibco), 50 μM 2-mercaptoethanol (Roth), 1 mM sodium pyruvate (Biochrome), and 1x non-essential amino acids (Biochrome) as previously described ([28]). Shortly, 2 × 10^6 bone marrow cells flushed from the tibias and femurs of C57BL/6 mice were seeded in dishes containing 200 U/ml GM-CSF. After 3 days extra medium containing GM-CSF was added to the cells and on day 6 half of the medium was replaced by fresh […] containing GM-CSF. After 7 or 8 days slightly attached cells were harvested. Female C57BL/6JolaHsd mice were purchased from Janvier (St. Berthevin Cedex, France). Animal experiments were performed in strict accordance with the German regulations of the Society for Laboratory Animal Science (GV-SOLAS) and the European Health Law of the Federation of Laboratory Animal Science Associations (FELASA). The protocol was approved by the Regierungspräsidium Tübingen (Anzeige 09.01.2014).
2 × 10^5 murine BM-DC's or human Mo-DC's were seeded in 96-well round bottom plates. First they were pretreated with 100 ng/ml pertussis toxin (Sigma-Aldrich) or 5 μM of the CCR2 inhibitor RS 504393 (Tocris) and subsequently stimulated with 100 ng/ml LPS or 0.2 […] and 10 μg/ml or 100 μg/ml hBD2. 24 h later supernatants were collected and TNF-α [Biolegend (BM-DC's); R&D (Mo-DC's)] was analyzed according to the manufacturer's instructions. IL-10, IL-12, and IL-1β (LEGENDplex Biolegend) was as well-analyzed according to the manufacturer's instructions.

[3] = tested on: NMRI mice; assay: In vivo toxicity test, single s.c. dose; design: species or system mouse; conditions: for Clinical signs at the end of the day of dosing / Clinical signs on the day of dosing: Clinical signs / Clinical signs on the day of dosing: No clinical signs / Clinical signs on the day of dosing: Pruritus / Necropsy: Macroscopic findings: female NMRI mice; for Clinical signs at the end of the day of dosing / Clinical signs on the day of dosing: Clinical signs / Clinical signs on the day of dosing: No clinical signs / Clinical signs on the day of dosing: Pruritus: animals/group; for Necropsy: Macroscopic findings: necropsy day 4, animals/group
Protocol: In vivo toxicity of hBD2 was assessed in 6–8 weeks old female NMRI mice (Taconic Europe). All animal studies were performed according to Danish legislations for laboratory animals and approved by Novozymes science ethics committee. hBD2 was given subcutaneously (s.c.) in the intrascapular region using a 25G needle and a 1 ml syringe. […] Clinical signs were recorded on day 0 and monitored until experimental endpoints. Body weights were recorded as a minimum on day 0, day 2, and day 4 prior to euthanasia. Necropsy was performed after euthanasia and kidneys, spleens and livers were weighed.

[4] = LPS, hBD2 100 μg/ml, 24 h, LEGENDplex

Substance: human β-defensin 2 (GIGDPVTCLKSGAICHPVFCPRRYKQIGTCGLPGTKCCKKP; not fully specified; ends and bridges not checked) [hBD2, Recombinant human β-defensin 2 expressed in E. coli as his-tagged thioredoxin fusion, cleaved and purified, natural tertiary structure]
- Release of IL-1β ([1]; LPS 20 pg/ml, n = 150–194): consistently mitigated release of both cytokines
- Release of TNF-α ([1]; LPS 20 pg/ml, n = 150–194): consistently mitigated release of both cytokines
- Release of IL-1β ([1]; Pam3CSK4 0.3 μg/ml): significantly reduced
- Release of TNF-α ([1]; Pam3CSK4 0.3 μg/ml): significantly reduced
- TNF-α production in LPS-challenged murine BM-DCs ([2]; LPS, hBD2 100 μg/ml or 10 μg/ml, 24 h, ELISA): dose-dependently curbed TNF-α production
- IL-10 secretion [2, 4]: substantial induction
- LPS-induced IL-1β secretion [2, 4]: alleviated
- LPS-induced IL-12p70 secretion [2, 4]: alleviated
- LPS-induced TNF-α secretion [2, 4]: alleviated
- Cytokine production after TLR-independent activation ([2]; cytokine cocktail TNF-α, IL-6, IL-1β (0.2 mg/ml each), hBD2 100 μg/ml): failed to modulate TLR-independent activation of BM-DCs
- Clinical signs after systemic challenge ([3]; 0.5 mg/kg s.c.): did not develop any clinical signs
- Clinical signs at the end of the day of dosing ([3]; 0.5 mg/kg s.c.): 0/3
- Clinical signs on the day of dosing: Clinical signs ([3]; 0.5 mg/kg s.c.): 0/3
- Clinical signs on the day of dosing: No clinical signs ([3]; 0.5 mg/kg s.c.): 3/3
- Clinical signs on the day of dosing: Pruritus ([3]; 0.5 mg/kg s.c.): 0/3
- Necropsy: Macroscopic findings ([3]; 0.5 mg/kg s.c.): 0/3
- Clinical signs at the end of the day of dosing ([3]; 10 mg/kg s.c.): 0/3
- Clinical signs on the day of dosing: Clinical signs ([3]; 10 mg/kg s.c.): 3/3
- Clinical signs on the day of dosing: No clinical signs ([3]; 10 mg/kg s.c.): 0/3
- Clinical signs on the day of dosing: Pruritus ([3]; 10 mg/kg s.c.): 3/3
- Necropsy: Macroscopic findings ([3]; 10 mg/kg s.c.): 0/3
- Clinical signs at 60 min post dosing ([3]; 40 mg/kg s.c.): still affected at 60 min post dosing
- Clinical signs at the end of the day of dosing ([3]; 40 mg/kg s.c.): 0/3
- Clinical signs on the day of dosing: No clinical signs ([3]; 40 mg/kg s.c.): 0/3
- Clinical signs on the day of dosing: Pruritus ([3]; 40 mg/kg s.c.): 3/3
- Necropsy: Macroscopic findings ([3]; 40 mg/kg s.c.): 0/3
- Body weight gain ([3]; 0.5, 10, 40 mg/kg s.c., day 0-4): did not show any weight loss
- Adverse effects at necropsy ([3]; 0.5, 10, 40 mg/kg s.c., necropsy day 4): no adverse effects were observed at necropsy
- Organ weight (liver, spleen, kidneys) ([3]; 0.5, 10, 40 mg/kg s.c., necropsy day 4, hBD2 mice n = 3, control n = 2): nor did the organ weight differ significantly between the groups
- Clinical signs shortly after challenge ([3]; 10 or 40 mg/kg s.c., 10–15 min after challenge, transient): mild clinical signs
